T1: human calcitonin receptor (human, UniProt P30988 25-474)
T1 construct: whole, on cells; Assay used cell membranes, not intact cells; also called hCTR; hCT
T1 sequence (looked up): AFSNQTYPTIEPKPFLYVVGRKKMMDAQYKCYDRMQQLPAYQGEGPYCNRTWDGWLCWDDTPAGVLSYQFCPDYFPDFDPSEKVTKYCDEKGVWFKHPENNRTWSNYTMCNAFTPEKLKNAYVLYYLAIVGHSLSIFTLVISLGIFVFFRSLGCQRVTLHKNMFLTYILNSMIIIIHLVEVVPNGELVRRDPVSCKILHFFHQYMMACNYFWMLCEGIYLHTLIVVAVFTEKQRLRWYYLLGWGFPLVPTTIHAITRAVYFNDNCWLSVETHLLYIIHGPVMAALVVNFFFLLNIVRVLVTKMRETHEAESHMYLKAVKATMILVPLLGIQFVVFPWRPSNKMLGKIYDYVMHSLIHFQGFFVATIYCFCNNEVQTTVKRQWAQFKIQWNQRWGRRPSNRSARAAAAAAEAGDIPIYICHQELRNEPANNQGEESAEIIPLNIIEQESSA

T2: human amylin receptor (amylin 3(a) receptor: human calcitonin receptor with RAMP-3) (human, UniProt P30988 25-474; O60896 24-148)
T2 construct: whole, on cells; Assay used cell membranes of the Amylin 3(a)/CRE-luc BHK cells, not intact cells; also called hAmylin-R; hAmylinR
T2 sequence (looked up) 1: T1 sequence (looked up)
T2 sequence (looked up) 2: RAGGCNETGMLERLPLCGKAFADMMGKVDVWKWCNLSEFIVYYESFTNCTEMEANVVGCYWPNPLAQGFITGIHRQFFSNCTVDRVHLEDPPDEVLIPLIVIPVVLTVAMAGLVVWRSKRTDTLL

B1: N^ε1-[2-[2-[2-[[(4S)-4-carboxy-4-(19-carboxynonadecanoylamino)butanoyl]amino]ethoxy]ethoxy]acetyl]-[Arg14,Arg17,Pro21,Pro27]-h-amylin (peptide)
peptide: K([AEEA-γGlu-C20 diacid])CNTATCATQRLARFLRHSSPNFGAIPSSTNVGSNTY-NH2
modifications: disulfide 2-7; N-terminus assumed
SMILES: CC[C@H](C)[C@H](NC(=O)[C@H](C)NC(=O)CNC(=O)[C@H](Cc1ccccc1)NC(=O)[C@H](CC(N)=O)NC(=O)[C@@H]1CCCN1C(=O)[C@H](CO)NC(=O)[C@H](CO)NC(=O)[C@H](Cc1c[nH]cn1)NC(=O)[C@H](CCCNC(=N)N)NC(=O)[C@H](CC(C)C)NC(=O)[C@H](Cc1ccccc1)NC(=O)[C@H](CCCNC(=N)N)NC(=O)[C@H](C)NC(=O)[C@H](CC(C)C)NC(=O)[C@H](CCCNC(=N)N)NC(=O)[C@H](CCC(N)=O)NC(=O)[C@@H](NC(=O)[C@H](C)NC(=O)[C@@H]1CSSC[C@H](NC(=O)[C@@H](N)CCCCNC(=O)COCCOCCNC(=O)CC[C@H](NC(=O)CCCCCCCCCCCCCCCCCCC(=O)O)C(=O)O)C(=O)N[C@@H](CC(N)=O)C(=O)N[C@@H]([C@@H](C)O)C(=O)N[C@@H](C)C(=O)N[C@@H]([C@@H](C)O)C(=O)N1)[C@@H](C)O)C(=O)N1CCC[C@H]1C(=O)N[C@@H](CO)C(=O)N[C@@H](CO)C(=O)N[C@H](C(=O)N[C@@H](CC(N)=O)C(=O)N[C@H](C(=O)NCC(=O)N[C@@H](CO)C(=O)N[C@@H](CC(N)=O)C(=O)N[C@H](C(=O)N[C@@H](Cc1ccc(O)cc1)C(N)=O)[C@@H](C)O)C(C)C)[C@@H](C)O
notes: also called compound 82
B2: N^ε1-[2-[2-[2-[[(4S)-4-carboxy-4-(19-carboxynonadecanoylamino)butanoyl]amino]ethoxy]ethoxy]acetyl]-[Arg17,Pro21,Pro27,His34]-h-amylin (peptide)
peptide: K([AEEA-γGlu-C20 diacid])CNTATCATQRLANFLRHSSPNFGAIPSSTNVGHNTY-NH2
modifications: disulfide 2-7; N-terminus assumed
SMILES: CC[C@H](C)[C@H](NC(=O)[C@H](C)NC(=O)CNC(=O)[C@H](Cc1ccccc1)NC(=O)[C@H](CC(N)=O)NC(=O)[C@@H]1CCCN1C(=O)[C@H](CO)NC(=O)[C@H](CO)NC(=O)[C@H](Cc1c[nH]cn1)NC(=O)[C@H](CCCNC(=N)N)NC(=O)[C@H](CC(C)C)NC(=O)[C@H](Cc1ccccc1)NC(=O)[C@H](CC(N)=O)NC(=O)[C@H](C)NC(=O)[C@H](CC(C)C)NC(=O)[C@H](CCCNC(=N)N)NC(=O)[C@H](CCC(N)=O)NC(=O)[C@@H](NC(=O)[C@H](C)NC(=O)[C@@H]1CSSC[C@H](NC(=O)[C@@H](N)CCCCNC(=O)COCCOCCNC(=O)CC[C@H](NC(=O)CCCCCCCCCCCCCCCCCCC(=O)O)C(=O)O)C(=O)N[C@@H](CC(N)=O)C(=O)N[C@@H]([C@@H](C)O)C(=O)N[C@@H](C)C(=O)N[C@@H]([C@@H](C)O)C(=O)N1)[C@@H](C)O)C(=O)N1CCC[C@H]1C(=O)N[C@@H](CO)C(=O)N[C@@H](CO)C(=O)N[C@H](C(=O)N[C@@H](CC(N)=O)C(=O)N[C@H](C(=O)NCC(=O)N[C@@H](Cc1c[nH]cn1)C(=O)N[C@@H](CC(N)=O)C(=O)N[C@H](C(=O)N[C@@H](Cc1ccc(O)cc1)C(N)=O)[C@@H](C)O)C(C)C)[C@@H](C)O
notes: also called compound 76
B3: N^ε1-[2-[2-[2-[[(4S)-4-carboxy-4-(19-carboxynonadecanoylamino)butanoyl]amino]ethoxy]ethoxy]acetyl]-[Arg17,Pro21,Pro27,Arg34]-h-amylin (peptide)
peptide: K([AEEA-γGlu-C20 diacid])CNTATCATQRLANFLRHSSPNFGAIPSSTNVGRNTY-NH2
modifications: disulfide 2-7; N-terminus assumed
SMILES: CC[C@H](C)[C@H](NC(=O)[C@H](C)NC(=O)CNC(=O)[C@H](Cc1ccccc1)NC(=O)[C@H](CC(N)=O)NC(=O)[C@@H]1CCCN1C(=O)[C@H](CO)NC(=O)[C@H](CO)NC(=O)[C@H](Cc1c[nH]cn1)NC(=O)[C@H](CCCNC(=N)N)NC(=O)[C@H](CC(C)C)NC(=O)[C@H](Cc1ccccc1)NC(=O)[C@H](CC(N)=O)NC(=O)[C@H](C)NC(=O)[C@H](CC(C)C)NC(=O)[C@H](CCCNC(=N)N)NC(=O)[C@H](CCC(N)=O)NC(=O)[C@@H](NC(=O)[C@H](C)NC(=O)[C@@H]1CSSC[C@H](NC(=O)[C@@H](N)CCCCNC(=O)COCCOCCNC(=O)CC[C@H](NC(=O)CCCCCCCCCCCCCCCCCCC(=O)O)C(=O)O)C(=O)N[C@@H](CC(N)=O)C(=O)N[C@@H]([C@@H](C)O)C(=O)N[C@@H](C)C(=O)N[C@@H]([C@@H](C)O)C(=O)N1)[C@@H](C)O)C(=O)N1CCC[C@H]1C(=O)N[C@@H](CO)C(=O)N[C@@H](CO)C(=O)N[C@H](C(=O)N[C@@H](CC(N)=O)C(=O)N[C@H](C(=O)NCC(=O)N[C@@H](CCCNC(=N)N)C(=O)N[C@@H](CC(N)=O)C(=O)N[C@H](C(=O)N[C@@H](Cc1ccc(O)cc1)C(N)=O)[C@@H](C)O)C(C)C)[C@@H](C)O
notes: also called compound 78
B4: N^ε1-[2-[2-[2-[[(4S)-4-carboxy-4-(19-carboxynonadecanoylamino)butanoyl]amino]ethoxy]ethoxy]acetyl]-[His14,Arg17,Pro21,Pro27,Arg34]-h-amylin (peptide)
peptide: K([AEEA-γGlu-C20 diacid])CNTATCATQRLAHFLRHSSPNFGAIPSSTNVGRNTY-NH2
modifications: disulfide 2-7; N-terminus assumed
SMILES: CC[C@H](C)[C@H](NC(=O)[C@H](C)NC(=O)CNC(=O)[C@H](Cc1ccccc1)NC(=O)[C@H](CC(N)=O)NC(=O)[C@@H]1CCCN1C(=O)[C@H](CO)NC(=O)[C@H](CO)NC(=O)[C@H](Cc1c[nH]cn1)NC(=O)[C@H](CCCNC(=N)N)NC(=O)[C@H](CC(C)C)NC(=O)[C@H](Cc1ccccc1)NC(=O)[C@H](Cc1c[nH]cn1)NC(=O)[C@H](C)NC(=O)[C@H](CC(C)C)NC(=O)[C@H](CCCNC(=N)N)NC(=O)[C@H](CCC(N)=O)NC(=O)[C@@H](NC(=O)[C@H](C)NC(=O)[C@@H]1CSSC[C@H](NC(=O)[C@@H](N)CCCCNC(=O)COCCOCCNC(=O)CC[C@H](NC(=O)CCCCCCCCCCCCCCCCCCC(=O)O)C(=O)O)C(=O)N[C@@H](CC(N)=O)C(=O)N[C@@H]([C@@H](C)O)C(=O)N[C@@H](C)C(=O)N[C@@H]([C@@H](C)O)C(=O)N1)[C@@H](C)O)C(=O)N1CCC[C@H]1C(=O)N[C@@H](CO)C(=O)N[C@@H](CO)C(=O)N[C@H](C(=O)N[C@@H](CC(N)=O)C(=O)N[C@H](C(=O)NCC(=O)N[C@@H](CCCNC(=N)N)C(=O)N[C@@H](CC(N)=O)C(=O)N[C@H](C(=O)N[C@@H](Cc1ccc(O)cc1)C(N)=O)[C@@H](C)O)C(C)C)[C@@H](C)O
notes: also called compound 84

This is an account of results in patent US20140087995A1 (published 2014).

Numbered stars: 1 amine (or outer) side, 2 acyl side, 3 side chain; on linkers, the order of the positions; unused ones are H or OH. Bridge positions count the residues as written; N and C are the ends. Side chains are listed from the residue outwards. Ends that are not written are not given here. * marks the point of attachment. C20 diacid = O=C(O)CCCCCCCCCCCCCCCCCCC(=O)*; γGlu = O=C(O)[C@H](CCC(=O)[*:2])N[*:1]; AEEA = NCCOCCOCC(=O)O

One test addresses T1, human calcitonin receptor. In words: ratio IC50 hCTR / IC50 hAmylin-R (reference: human amylin receptor), SPA competition assays. Here is the method: The resulting pellet was resuspended, homogenized and centrifuged (20.000 rpm, 15 min) in a buffer containing 20 mM Na-HEPES and 0.1 mM EDTA (pH 7.4, buffer 2). The resulting pellet was resuspended in buffer 2 and protein concentration was measured (BCA protein Assay, Pierce). The homogenate was kept cold during the whole procedure. The membranes were kept at −80° C. until use. The assay was performed in a 384 well Optiplate (PerkinElmer) in a total volume of 40 ul. Membranes were mixed with SPA beads. Final concentration of membranes 35 ng/μL final and SPA beads was 0.05 mg/well. Test-compounds were dissolved in DMSO and further diluted in assay buffer (50 mM Hepes, pH 7.4, 1 mM CaCl2, 5 mM MgCl₂, 0.1% OA and 0.02% Tween20). […] The final mixture was incubated with shaking at 400 rpm for 120 min at 25° C. prior to centrifugation (1500 rpm, 10 min). Samples were analyzed on TopCounter™ (Packard). The IC₅₀ was calculated using (one site binding competition analysis) GraphPad Prism5 as a measure of receptor affinity.
Membranes were prepared in the following way; the cells were rinsed with PBS and incubated with Versene for approximately 5 min before harvesting. The cells were flushed with PBS and the cell-suspension was centrifuged for 5 min at 1000 rpm. Cells were homogenized (Ultrathurrax) in a buffer containing 20 mM Na-HEPES and 10 mM EDTA (pH 7.4) and centrifuged at 20.000 rpm for 15 min. The resulting pellet was resuspended, homogenized and centrifuged (20.000 rpm, 15 min) in a buffer containing 20 mM Na-HEPES and 0.1 mM EDTA (pH 7.4, buffer 2). The resulting pellet was resuspended in buffer 2 and protein concentration was measured (BCA protein Assay, Pierce). The homogenate was kept cold during the whole procedure. The membranes were kept at −80° C. until use. Assay was performed in a 384 well Optiplate (PerkinElmer) in a total volume of 40 ul. Membranes were mixed with SPA beads.
As to B1, the “Ratio hCT/hAmylin binding” value stood at 140.

As for B2, the “Ratio hCT/hAmylin binding” value turned out to be 80.

Consider B3, for which the “Ratio hCT/hAmylin binding” value came out at 60.7.

Consider B4, for which the “Ratio hCT/hAmylin binding” value came to 120.

A further test has as its target T2, human amylin receptor (amylin 3(a) …). In words: SPA competition with 125I-rat amylin on membranes of BHK cells with human calcitonin receptor and RAMP-3 (Assay V). In a few lines: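 SPA beads with BHK Amylin 3(a)/CRE-luc cell membranes (35 ng/μL final) in 50 mM Hepes pH 7.4, 1 mM CaCl2, 5 mM MgCl₂, 0.1% OA, 0.02% Tween20.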
Turning to B1, the concentration for half-maximal inhibition (IC50) is 0.636 nM.

For B2, the IC50 was 0.215 nM.

Consider B3, for which the half-maximal inhibitory concentration (IC50) stood at 0.602 nM.

In the case of B4, the IC50 stood at 0.743 nM.

For a further test, the target named is T1, human calcitonin receptor. Kind of test: SPA competition with 125I-calcitonin on membranes of BHK cells with human calcitonin receptor (Assay VII). In a few lines: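 BHK hCTR membranes 35 ng/μL + SPA beads 0.05 mg/well; buffer 50 mM Hepes pH 7.4, 1 mM CaCl2, 5 mM MgCl₂, 0.1% OA, 0.02% Tween20. 120 min, 25° C., shaking. Scintillation count; IC50 by one-site binding competition.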
For the molecule B1, the half-inhibitory concentration (IC50) is 88.8 nM.

Turning to B2, the IC50 amounted to 17.2 nM.

B3: the IC50 is 36.5 nM.

On to B4, for which the IC50 was 88.9 nM.

A word on the IC50: it is the concentration that gives 50% inhibition.
